Results from patent publication US20250340628A1, “COMPOSITIONS AND METHODS FOR TREATING MACROPHAGE ACTIVATION SYNDROME” (TJ Biopharma (Hangzhou) Co., Ltd., priority 2022, published 2025).
“Also recorded” adds a separate entry of the source.

Legend:
[1] = test system: macrophage activation syndrome (MAS) model in NOG-EXL mice (overexpress human IL-3 and GM-CSF); test: macrophage activation syndrome (MAS) model induced by CBMC transplantation in NOG-EXL mice; type: in vivo
Method: This study is performed to evaluate the in vivo efficacy of IMH001 (see sequences in Table 1), a GM-CSF neutralization antibody, on delaying the disease progression in a macrophage activation syndrome (MAS) model (induced by CBMC transplantation) in NOG-EXL mice. This lymphocyte-independent, effector-driven MAS mice model can be established by engrafting human umbilical cord blood (UCB) into NOG-EXL mice. NOG-EXL (NOD.Cg-Prkdc^scidIL2g^tm1SugTg (SV40/HTLV-IL3, CSF2) is a gene modified strain based on NOG (NOD.Cg-Prkdc^scidIL2^tm1Sug) mice, which is immunodeficient and overexpress human IL-3 and GM-CSF continuously, which can enrich the myeloid cell populations, including Dc, monocyte and macrophage, following human stem cell engraftment. A total of 46 NOG-EXL and 8 NOG mice were used in the study.
Five to six-week-old NOG-EXL mice were irradiated with 1 Gy before tail vein injection of OKT3-pretreated cord blood mononuclear cells (CBMC) reconstitution. The day of reconstruction was defined as Day 0. OKT3-pretreated CBMC engrafted NOG-EXL mice were treated with biweekly i.p. doses of PBS or 10 mg/kg IMH001 starting from week 1 of engraftment. Animal body weights, CBC counting, and serum ferritin were measured at indicated time points.
Four NOG mice (G1) and 14 NOG-EXL mice (6 mice for G2 and 8 mice for G3, respectively) were dosed one week after reconstruction (Day 7), twice a week for 15 weeks. The grouping and dosing regimens were as follows in Table 2:
Body weight: The body weight of mice was measured and recorded once a week after CBMC transplantation.
CBC counting: Whole blood was collected from mice and counted by a CBC machine at week 4, 8 and 16. And at the end of the study, i.e. week 16, total bone marrow viable cells were also counted. Before blood collection, mice were anesthetized with 3-4% isoflurane.
Ferritin, fibrinogen and triglycerides: Serum was collected from mice at week 8 and 16. Then measured separately using ELISA kits. Prior to blood collection, mice were anesthetized with 3-4% isoflurane.
Experimental endpoint collection: The endpoint is Day 112/Week 16. Spleens were collected and weighed from all mice of each groups; cell smears from bone marrow, sections of liver and spleen were collected for Wright Giemsa staining to detect the presence of hemophagocytosis. Activated lymphoid tissue, spleen/lymph nodes, liver, and meninges were collected for H&E section to detect inflammatory cell infiltration and depletion of lymphoid follicles in spleen/lymph nodes.
All data statistical analysis methods involved in this project needed to be consistent with the protocol, and the results were expressed as mean±SEM. Firstly, F-test (IDBS E-WorkBook 10.5.0 (64 bit) © TDBS) was used to analyze the homogeneity of variance. If the variance was homogeneity (p>0.05), one-way ANOVA was carried out. T-test was used for two groups comparation, and Dunnett's multiple comparison method was used for multiple groups comparation. If the variance was heterocedasticity (p≤0.05), Kruskal Wallis method was performed for nonparametric test, U-test was used for two groups comparation (Kruskal Wallis parameter test has significant difference, p≤0.05), and Dunn's multiple comparison method was used for multiple groups comparation (Kruskal Wallis parameter test has no significant difference, p>0.05). p<0.05 was considered as significant difference.

[2] = type: physicochemical
Method: Three different buffer systems, sodium acetate, histidine hydrochloride and sodium dihydrogen phosphate, were initially evaluated, at various different pH levels, for IMH001. […] The next step evaluated a number of excipients, including sucrose, trehalose, mannitol, proline, arginine hydrochloride, glycine, solidum chloride, PS20 and PS80. According to the changes in stability (CEX-HPLC) results at 50° C. for 1 week, comparison was carried out for the formulation with different excipients. […] It was unknown, however, whether the selected buffer and excipient would allow a protein solubility of IMH001 suitable for subcutaneous injection at a high concentration. The solubility and viscosity of the protein at concentrations of 100 mg/ml and 150 mg/ml in histidine hydrochloride buffer system (pH 5.8) were therefore assessed. […] PS80 (Polysorbate 80) was then tested for its ability to improve durability and stability of the candidate formulations, at different concentrations of sucrose for a protein concentration of 100 mg/ml.

[3] = serum, week 8 and 16, 10 mg/kg i.p. BIW
[4] = 100 mg/ml and 150 mg/ml in 20 mmol/L histidine hydrochloride pH 5.8, 4° C. and 25° C. for 48 hours

B1: IMH001: humanized IgG1 anti-GM-CSF neutralization antibody with VH of SEQ ID NO:1 and VL of SEQ ID NO:2 (antibody, V domains shown)
VH: EVQLVQSGAEVKKPGASVKVSCKASGYTFTSHYLHWVRQAPGQGLEWMGWIFPGDDKTKYNEKFKGRVTMTSDTSISTAYMELSRLRSDDTAVYYCARGTKYLNWNFDVWGQGTTVTVSS
VL: DIQLTQSPSFLSASVGDRVTITCKANQNVGTTLAWYQQKPGKSPKALIYSASYRYSGVPDRFSGSGSGTDFTLTISSLQPEDFATYFCHQYTTYPLTFGGGTKVEIK
- body weight ([1]; 10 mg/kg i.p. BIW (G3) vs vehicle control group (G2), Day 63 to Day 112, p<0.05): significantly increased; also recorded: reduced weight loss
- disease development / progression (overall) ([1]; 10 mg/kg i.p. BIW for 15 weeks): completely reversed; also recorded: showed efficacy
- NEUT percent ([1]; 10 mg/kg i.p. BIW vs untreated): recovery
- RBC number in peripheral blood (anemia) ([1]; 10 mg/kg i.p. BIW vs untreated NOG-EXL, in words): effectively improve; also recorded: ameliorated anemia
- HGB level ([1]; 10 mg/kg i.p. BIW vs untreated, Day 56): significantly higher; also recorded: increase
- monocyte percent ([1]; 10 mg/kg i.p. BIW, considered pharmacological effect): decrease
- total bone marrow viable cells (mean value) ([1]; day 112, 10 mg/kg i.p. BIW, vs NOG-EXL untreated 9.55, p=0.182): 11.6
- RBC cell number ([1]; peripheral blood CBC, Day 56, 10 mg/kg i.p. BIW, vs untreated 6.45, p<0.001): 8.17
- Fibrinogen [1, 3]: No significant changes
- Triglyceride [1, 3]: No significant changes
- Ferritin level ([1]; serum, wk 8 and wk 16, 10 mg/kg i.p. BIW vs untreated): effectively control; also recorded: significantly reduce; also recorded: inhibited ferritin increase
- inflammatory infiltration (histopathology) ([1]; wk 16, H&E, liver and meninx): decreased; also recorded: improved significantly
- lymphocyte exhaustion (histopathology) ([1]; wk 16, H&E, spleen and lymph nodes): effectively reduce; also recorded: improved significantly
- hemophagocytosis (histopathology) ([1]; wk 16, Wright Giemsa staining of bone marrow smears, liver and spleen sections): effectively prevent; also recorded: improved significantly
- antibody stability in buffer systems [2]: stable
- changes in appearance color, clarity, OD350, protein concentration and viscosity [2, 4]: no obvious changes
- viscosity [2, 4]: lower than 10 cP
- viscosity of samples with PS80 and different sucrose concentrations ([2]; protein concentration 100 mg/ml): acceptable
